Publication PMC8673750 (Cell Reports, 2021)

Legend:
[1] = target: SARS-CoV-2 S glycoprotein, original Wuhan-Hu-1 strain (WT), full-length, on 293T cells (SARS-CoV-2, UniProt P0DTC2); assay: flow cytometry on cells
Peptide #289 11-mer = target: T1, Peptide #289 11-mer (SARS-CoV-2, Wuhan-Hu-1); assay: SPR
T1 chain: DKYFKNHTSPD

Peptide #288 15-mer = target: T2, Peptide #288 15-mer (SARS-CoV-2, Wuhan-Hu-1); assay: ELISA
T2 chain: KEELDKYFKNHTSPD

Binder | binding result [1] | Kd (Peptide #289 11-mer) [µM] | binding result (Peptide #288 15-mer)
CV3-1 IgG (antibody, V domains shown) VH: EVQLVESGPEVKKPGTSVKVPCKASGFTFTSSAVQWVRQARGQRLEWIGWIVVGSGNTNYAQKFQERVTITRDMSTSTAYMELSSLRSEDTAVYYCAAPSCSGGRCYDGFDIWGQGTMVTVSS VL: not shown | binds |  | 
CV3-25 IgG (antibody, V domains shown) VH: EVQLVESGAEVKKPGESLKISCKGSGYTFTRYWIGWVRQMPGKGLEWMGIIYPGDSDTRYSPSFQGHVTISADKSISTAYLQWNSLKASDTAMYYCARLPQYCSNGVCQRWFDPWGQGTLVTVSS VL: EIVLTQSPSSVSASVGDRVTITCRASQGISSWLAWYQQKPGKAPKLLIYAASSLQSGVPSRFSGSGSGTDFTLTISSLQPEDFATYYCQQGNSFPYTFGQGTNLEIK |  | ~1 | binds
